Measurements as given in the DeepSol protein solubility set.

Assay: soluble on expression in E. coli; label from the status in PepcDB or PDB records
In the case of “MAHHHHHHMAQCLTWQVLDQRQTGECLDAVDLEALRAVIKRIDDDRDGALLHSSERTATQVNVLLDLYGHLVLFAKASQFSPFKTSTLFGIVHRVHEASIADRLSRFHSYDLLRELVVRHSVHRPPYSTMVFSVREVQDIDTYMMSTYYRHYKMYVYCFVPREVASLRTVMLNDTAEAPPAQLPPLSAAIREDAWKEKMQEKVRTLEEAEMEEQLIVSDAVSEAQKNAATLDNSRFMAGISAQLEAIRDAVSTKSSERLDLIEEKLTAIEAKVNEAQSSGNRSRQGSRGSSKRK”, the “soluble on expression in E. coli” value is reported as “soluble”.
For “LVDGSLCELRYSWAKIDTYQHVNNFITLNQVKIALAQSRCHNHHLDSTTITVWYDSAFSVMRDLKGIGANHVSGRSHGLTSRRTLLQVERAYQAFKNDQGLLPATYQVCFGVIHL”, the “soluble on expression in E. coli” value was “not soluble”.
In the case of “MSLTETLDNTQDLLMDVDKYNFWEVEGEDAAGEVNSKDMDMVGVDEKSGAPVFRLTDNNDEQPLNENENGNFKFKMNTIATENMAYLTEKDKYKLYPSKVPGYDNSREYSSYVSKVFELYNDLDEHRVYSAPTIGIINKSYAREHNYVLNVAFESFVTELNFFIESIKNDPNLINRVLQLEESITILNCLKTIHFTFDSLQNESDSREQFVNSLIDWVNRSDGEPKEEYIEQIFTRNDNIEVFNTLQFWKLVNKLLLRGLFEQALGCLERSKIMDFLKSQCEVSANILGDAIALLEQYPIDSSETFREWKFMVLGLQQTYSNSNTKITGELRDYIEDTLLLIGGNQSKLLQYSSTWYEAYASFYLYYIPTLELSHDYLELALSTHPLDLTKNWEQACVNIINNKIYSILPVLESLDLCTAATTAALCEAKGILENFLDDDTKTFKGNVDKLVTPVHGMASYLLNQFAFELCSQEEKTLWPVAIGLISISPFESASVKRTTISEVLPRFPFSTNDDIEWMLAVCAKWRLPKIAKKIYKILGSKLQAEGNVIESMTNFSKAGEFDIVKNEGHHHHHH”, the “soluble on expression in E. coli” value is reported as “soluble”.
In the case of “MGHHHHHHSHMAVEDEGLRVFQSVKIKIGEAKNLPSYPGPSKMRDCYCTVNLDQEEVFRTKIVEKSLCPFYGEDFYCEIPRSFRHLSFYIFDRDVFRRDSIIGKVAIQKEDLQKYHNRDTWFQLQHVDADSEVQGKVHLELRLSEVITDTGVVCHKLATRIVECQGLPIVNGQCDPYATVTLAGPFRSEAKKTKV”, the “soluble on expression in E. coli” value is reported as “not soluble”.
For “MKKVYIKTFGCQMNEYDSDKMADVLGSAEGMVKTDNPEEADVILFNTCSVREKAQEKVFSDLGRIRPLKEANPDLIIGVGGCVASQEGDAIVKRAPFVDVVFGPQTLHRLPDLIESRKQSGRSQVDISFPEIEKLEHHHHHH”, the “soluble on expression in E. coli” value was “not soluble”.
In the case of “MNDKKLLVAYDISSNRRRRKVARILEQCGIRINKSVFICSLRELTMDKLVEAVTSQTAKRDKVFFLPLCQHCYTAAWMSGHPTLPKSRRKRKSIVV”, the “soluble on expression in E. coli” value is reported as “not soluble”.
In the case of “MPVAISLPTSSTSHFFPRRRGHANHRYQRFSGAQSSTEDPYIRKNQTGVIIIGAGLAGLAAANQLTSKRIPFLLLEASDGVGGRVRTDIVDGFFLDRGFQIFITAYPEAKKLLDYEALDLQRFYAGAKVFYGGKFHTVADPLRHFWDSVASLANPIGSVVDKGLIALTRARVLIKSDEEILTAADEVPTIDLLRKIGFSETILDRFFRPFFGGIFFDRDLETTSKLFDFVFRCLALGENTLPAMGIGEISNQLAAKLPAKSVLLNTRVASIEYPNGSGSDPPSVRLQDGSVMKAELGVIIAVEQPEVNKLLDGIRDPVITKPARSTICLYFTAEPNQIPVQDPVLFLNGSNSGIINNMFFATNVARTYAPPGKALVSVSLIGLFEDRTDDDLAAEVLRELSGWFGESPVMSWKHLKTYRIQFAQPNQCPPTDLVKSPRVGSGLYLSGDYMTSATFDGALVSGRRAVEVLLRETGLIK”, the “soluble on expression in E. coli” value is reported as “soluble”.
In the case of “MAHHHHHHMLNKGFTATKIIGKRCFQWWDNLNTSWKFAIGFSVLFPPLWNYNERRKAREKQVYYNKSIRDYVFFDIAIENKYVGRVLIGLYSDQVPLSVENFIQLAEGYKVKDKYIGYRNTFIHKIYPGIGLVGGNVLNDKEGLSIYGKKFPDENFDMEFVQDGDVALFNEGPHSNSSQFIITFSPMPILHKHNVVIGTVLKGMDIIRMIENVGTKLGNPMYNVKIINCGLYRSLEQDGPPFFNMMHISDKGNKNIISKKEFESLSEQQRQSLMEEIGKSEKRR”, the “soluble on expression in E. coli” value is reported as “soluble”.
For “GAMGKVGVGKKAEAVATVVAAVDQARVREPREPGLPEDSYAQQTTLEYGYKEH”, the “soluble on expression in E. coli” value was “soluble”.
